Assay results from US20200164032A1 (WASHINGTON UNIVERSITY, published 2020).

Experiments:
murine CXCL12 = target: T1, murine CXCL12 (mouse, UniProt P40224 22-89); test: SPR, R17 on CM5 chip
T1 construct: also called mCXCL12

murine TNF-alpha = target: T2, murine TNF-alpha (mouse, UniProt P06804 80-235); test: SPR, R17 on CM5 chip
T2 construct: also called mTNF-alpha; TNF-α
T2 sequence: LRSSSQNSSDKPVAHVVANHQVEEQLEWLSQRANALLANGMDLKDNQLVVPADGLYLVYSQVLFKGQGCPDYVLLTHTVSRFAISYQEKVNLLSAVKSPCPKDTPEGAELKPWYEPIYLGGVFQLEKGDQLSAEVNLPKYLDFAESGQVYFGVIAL

murine CXCL9 = target: T3, murine CXCL9 (mouse, UniProt P18340 22-126); test: SPR, R17 on CM5 chip
T3 construct: also called mCXCL9
T3 sequence: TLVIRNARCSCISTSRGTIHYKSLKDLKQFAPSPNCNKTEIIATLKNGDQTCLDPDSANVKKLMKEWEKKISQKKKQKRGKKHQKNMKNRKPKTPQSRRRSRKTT

murine CXCL10 = target: T4, murine CXCL10 (mouse, UniProt P17515 22-98); test: SPR, R17 on CM5 chip
T4 construct: also called mCXCL10
T4 sequence: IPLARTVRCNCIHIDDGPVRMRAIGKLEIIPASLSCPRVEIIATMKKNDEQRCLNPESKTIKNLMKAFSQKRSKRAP

murine IL-17 = target: T5, murine IL-17 (mouse, UniProt Q62386 26-158); test: SPR, R17 on CM5 chip
T5 construct: also called mIL-17
T5 sequence: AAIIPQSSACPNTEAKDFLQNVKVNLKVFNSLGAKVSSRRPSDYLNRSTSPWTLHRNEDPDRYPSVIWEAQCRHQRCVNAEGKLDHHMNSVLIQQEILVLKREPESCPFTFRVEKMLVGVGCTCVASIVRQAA

murine IL-12 = target: T6, murine IL-12 (mouse, UniProt P43431 23-215; P43432 23-335); test: SPR, R17 on CM5 chip
T6 construct: also called mIL-12
T6 sequence 1: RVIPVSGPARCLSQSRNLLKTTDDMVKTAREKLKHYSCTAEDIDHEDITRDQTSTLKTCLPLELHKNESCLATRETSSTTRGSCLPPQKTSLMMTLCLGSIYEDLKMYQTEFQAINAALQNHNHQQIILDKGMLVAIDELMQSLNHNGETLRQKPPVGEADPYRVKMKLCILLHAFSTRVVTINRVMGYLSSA
T6 sequence 2: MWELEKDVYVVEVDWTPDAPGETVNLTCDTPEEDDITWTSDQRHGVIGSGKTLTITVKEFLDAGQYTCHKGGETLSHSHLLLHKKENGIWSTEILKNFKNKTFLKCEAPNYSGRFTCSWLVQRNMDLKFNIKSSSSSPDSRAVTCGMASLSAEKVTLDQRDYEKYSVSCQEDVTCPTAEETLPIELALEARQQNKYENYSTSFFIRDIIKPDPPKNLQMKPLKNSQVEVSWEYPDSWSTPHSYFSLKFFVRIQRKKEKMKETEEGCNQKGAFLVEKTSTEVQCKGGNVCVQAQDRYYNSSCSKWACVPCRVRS

human CCL3 = target: T7, human CCL3 (human, UniProt P10147 23-92); test: SPR, R17 on CM5 chip
T7 construct: also called hCCL3
T7 sequence: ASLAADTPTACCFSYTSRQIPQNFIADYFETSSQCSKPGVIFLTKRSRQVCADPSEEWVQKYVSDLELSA

murine CXCL1 = target: T8, murine CXCL1 (mouse, UniProt P12850 25-96); test: SPR, R17 on CM5 chip
T8 construct: also called mCXCL1
T8 sequence: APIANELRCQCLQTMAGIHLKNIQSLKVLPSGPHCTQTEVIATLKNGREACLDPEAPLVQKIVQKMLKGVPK

murine IL-13 = target: T9, murine IL-13 (mouse, UniProt P20109 21-131); test: SPR, R17 on CM5 chip
T9 construct: also called mIL-13
T9 sequence: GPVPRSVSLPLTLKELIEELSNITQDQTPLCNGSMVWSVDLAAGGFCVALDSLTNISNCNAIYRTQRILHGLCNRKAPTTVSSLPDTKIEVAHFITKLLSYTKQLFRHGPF

murine CXCL2 = target: T10, murine CXCL2 (mouse, UniProt P10889 28-100); test: SPR, R17 on CM5 chip
T10 construct: also called mCXCL2
T10 sequence: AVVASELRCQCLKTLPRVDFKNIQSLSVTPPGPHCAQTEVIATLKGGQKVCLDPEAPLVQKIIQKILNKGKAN

murine IL-6 = target: T11, murine IL-6 (mouse, UniProt P08505 25-211); test: SPR, R17 on CM5 chip
T11 construct: also called mIL-6
T11 sequence: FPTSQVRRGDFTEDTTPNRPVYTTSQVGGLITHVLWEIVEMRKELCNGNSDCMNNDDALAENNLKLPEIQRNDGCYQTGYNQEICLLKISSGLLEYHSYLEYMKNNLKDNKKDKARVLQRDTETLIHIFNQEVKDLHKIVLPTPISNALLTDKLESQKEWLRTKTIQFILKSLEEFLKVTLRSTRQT

human CCL2 = target: T12, human CCL2 (human, UniProt P13500 24-99); test: SPR, R17 on CM5 chip
T12 construct: also called hCCL2
T12 sequence (P13500 24-99 limits assumed): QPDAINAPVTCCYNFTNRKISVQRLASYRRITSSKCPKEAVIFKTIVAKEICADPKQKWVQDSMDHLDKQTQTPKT

murine CCL5 = target: T13, murine CCL5 (mouse, UniProt P30882 24-91); test: SPR, R17 amine-coupled to CM5 chip
T13 construct: also called mCCL5
T13 sequence (P30882 24-91 limits assumed): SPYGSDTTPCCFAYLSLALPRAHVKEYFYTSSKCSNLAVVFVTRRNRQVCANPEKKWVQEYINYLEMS

murine CCL11 = target: T14, murine CCL11 (mouse, UniProt P48298 24-97); test: SPR, R17 amine-coupled to CM5 chip
T14 sequence: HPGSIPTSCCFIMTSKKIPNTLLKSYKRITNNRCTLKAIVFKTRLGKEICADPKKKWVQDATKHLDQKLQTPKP

murine CCL19 = target: T15, murine CCL19 (mouse, UniProt O70460 26-108); test: SPR, R17 amine-coupled to CM5 chip
T15 construct: also called mCCL19
T15 sequence: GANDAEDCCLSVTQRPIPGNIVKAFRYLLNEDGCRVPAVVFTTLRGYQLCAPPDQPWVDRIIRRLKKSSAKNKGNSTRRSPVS

murine CCL3 = target: T16, murine CCL3 (mouse, UniProt P10855 24-92); test: SPR, R17 amine-coupled to CM5 chip
T16 construct: also called mCCL3
T16 sequence: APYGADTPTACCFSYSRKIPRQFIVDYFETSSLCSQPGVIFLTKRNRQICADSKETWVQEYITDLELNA

[1] = target: CCL2 (species not given); test: SPR, R17 variant on CM5 chip; column kd x 10^-3 s-1

T1 sequence (P40224 22-89 limits assumed): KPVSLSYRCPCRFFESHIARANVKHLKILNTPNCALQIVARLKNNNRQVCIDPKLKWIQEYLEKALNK

B1: R17 chemokine decoy receptor of Rodent herpesvirus Peru (RHVP), wild type, C-terminal 8-His fusion (receptor)
chain: GPVGEPVASEINEASKVSSRLLTQDILFRKDRQATISLPIKLPVEDIITQTCDKITYGPLKFLDLLEKETAVLPLSTDITCPACLGRAVLVGKWECPAHVAVNESDLTVFGPNKEEHVPQFVTVQQPSDGKMQRLFFAKFLGTEESLAVLRVPGPDGHLCIQEALIHFKELSGAGVCSLWKANDSREEGLEMKQVDCLETTVLENQTCIATTLSKKIYHRLYCGERLMTGGQVSTRVLLTALGFYKRQPYTFHRVPKGMVYVHLIDSGSEDYMEYSECEEVTPGRYEDKQISYTFYTDLFQTADGEPVLASVWGTSGLKDSAYESCAFVIPTKGRRKLVPRRIMSKCYPFRLTYHPSTMTVRLDVRVEKHHGATDQGFVFLKMESGTYSEGREYYLDRVLWGEDSSTNNVLQ
notes: not shown: C-terminal 8-His tag
binding result (murine CXCL12): no binding
binding result (murine TNF-alpha): no binding
binding result (murine CXCL9): no binding
binding result (murine CXCL10): no binding
binding result (murine IL-17): no binding
binding result (murine IL-12): no binding
apparent complex half-life (t1/2,app) (human CCL3): > 1000 s
binding result (murine CXCL1): no binding
binding result (murine IL-13): no binding
binding result (murine CXCL2): no binding
binding result (murine IL-6): no binding
complex half-life (t1/2) (human CCL2): 2.1 s
dissociation time of the complex (murine CCL5): > 10 min
binding result (murine CCL11): binds
binding result (murine CCL19): binds
dissociation time of the complex (murine CCL3): > 10 min
koff [1]: 0.02 s⁻¹
